Reference: patent US20260049138A1 (Chugai, published 2026)

B1: CE115HA000 Y100Q one-arm antibody (antibody, human IgG1, kappa, L234A L235A, N297A, name in Kabat numbering)
heavy: QVQLVESGGGVVQPGRSLRLSCAASGFTFSNAWMHWVRQAPGKGLEWVAQIKAKSNNYATYYAESVKGRFTISRDDSKNSLYLQMNSLKTEDTAVYYCRYVHYGAQYGVDAWGQGTTVTVSSASTKGPSVFPLAPSSKSTSGGTAALGCLVKDYFPEPVTVSWNSGALTSGVHTFPAVLQSSGLYSLSSVVTVPSSSLGTQTYICNVNHKPSNTKVDKKVEPKSCDKTHTCPPCPAPEAAGGPSVFLFPPKPKDTLMISRTPEVTCVVVDVSHEDPEVKFNWYVDGVEVHNAKTKPREEQYASTYRVVSVLTVLHQDWLNGKEYKCKVSNKALPAPIEKTISKAKGQPREPQVYTLPPSRCELTKNQVSLSCAVKGFYPSDIAVEWESNGQPENNYKTTPPVLDSDGSFFLVSKLTVDKSRWQQGNVFSCSVMHEALHNHYTQKSLSLSPDYKDDDDK
chain: EPKSSDKTHTCPPCPAPELLGGPSVFLFPPKPKDTLMISRTPEVTCVVVDVSHEDPEVKFNWYVDGVEVHNAKTKPREEQYNSTYRVVSVLTVLHQDWLNGKEYKCKVSNKALPAPIEKTISKAKGQPREPQVCTLPPSRDELTKNQVSLWCLVKGFYPSDIAVEWESNGQPENNYKTTPPVLDSDGSFFLYSKLTVDKSRWQQGNVFSCSVMHEALHNRYTQKSLSLSP
light: DIVMTQSPLSLPVTPGEPASISCRSSQSLVHSNRNTYLHWYQQKPGQAPRLLIYKVSNRFSGVPDRFSGSGSGTDFTLKISRVEAEDVGVYYCGQGTQVPYTFGQGTKLEIKRTVAAPSVFIFPPSDEQLKSGTASVVCLLNNFYPREAKVQWKVDNALQSGNSQESVTEQDSKDSTYSLSSTLTLSKADYEKHKVYACEVTHQGLSSPVTKSFNRGEC
B2: CE115HA000 Y100W one-arm antibody (antibody, human IgG1, kappa, L234A L235A, N297A, name in Kabat numbering)
heavy: QVQLVESGGGVVQPGRSLRLSCAASGFTFSNAWMHWVRQAPGKGLEWVAQIKAKSNNYATYYAESVKGRFTISRDDSKNSLYLQMNSLKTEDTAVYYCRYVHYGAWYGVDAWGQGTTVTVSSASTKGPSVFPLAPSSKSTSGGTAALGCLVKDYFPEPVTVSWNSGALTSGVHTFPAVLQSSGLYSLSSVVTVPSSSLGTQTYICNVNHKPSNTKVDKKVEPKSCDKTHTCPPCPAPEAAGGPSVFLFPPKPKDTLMISRTPEVTCVVVDVSHEDPEVKFNWYVDGVEVHNAKTKPREEQYASTYRVVSVLTVLHQDWLNGKEYKCKVSNKALPAPIEKTISKAKGQPREPQVYTLPPSRCELTKNQVSLSCAVKGFYPSDIAVEWESNGQPENNYKTTPPVLDSDGSFFLVSKLTVDKSRWQQGNVFSCSVMHEALHNHYTQKSLSLSPDYKDDDDK
chain: EPKSSDKTHTCPPCPAPELLGGPSVFLFPPKPKDTLMISRTPEVTCVVVDVSHEDPEVKFNWYVDGVEVHNAKTKPREEQYNSTYRVVSVLTVLHQDWLNGKEYKCKVSNKALPAPIEKTISKAKGQPREPQVCTLPPSRDELTKNQVSLWCLVKGFYPSDIAVEWESNGQPENNYKTTPPVLDSDGSFFLYSKLTVDKSRWQQGNVFSCSVMHEALHNRYTQKSLSLSP
light: DIVMTQSPLSLPVTPGEPASISCRSSQSLVHSNRNTYLHWYQQKPGQAPRLLIYKVSNRFSGVPDRFSGSGSGTDFTLKISRVEAEDVGVYYCGQGTQVPYTFGQGTKLEIKRTVAAPSVFIFPPSDEQLKSGTASVVCLLNNFYPREAKVQWKVDNALQSGNSQESVTEQDSKDSTYSLSSTLTLSKADYEKHKVYACEVTHQGLSSPVTKSFNRGEC
B3: CE115HA000 Y100aA one-arm antibody (antibody, human IgG1, kappa, L234A L235A, N297A, name in Kabat numbering)
heavy: QVQLVESGGGVVQPGRSLRLSCAASGFTFSNAWMHWVRQAPGKGLEWVAQIKAKSNNYATYYAESVKGRFTISRDDSKNSLYLQMNSLKTEDTAVYYCRYVHYGAYAGVDAWGQGTTVTVSSASTKGPSVFPLAPSSKSTSGGTAALGCLVKDYFPEPVTVSWNSGALTSGVHTFPAVLQSSGLYSLSSVVTVPSSSLGTQTYICNVNHKPSNTKVDKKVEPKSCDKTHTCPPCPAPEAAGGPSVFLFPPKPKDTLMISRTPEVTCVVVDVSHEDPEVKFNWYVDGVEVHNAKTKPREEQYASTYRVVSVLTVLHQDWLNGKEYKCKVSNKALPAPIEKTISKAKGQPREPQVYTLPPSRCELTKNQVSLSCAVKGFYPSDIAVEWESNGQPENNYKTTPPVLDSDGSFFLVSKLTVDKSRWQQGNVFSCSVMHEALHNHYTQKSLSLSPDYKDDDDK
chain: EPKSSDKTHTCPPCPAPELLGGPSVFLFPPKPKDTLMISRTPEVTCVVVDVSHEDPEVKFNWYVDGVEVHNAKTKPREEQYNSTYRVVSVLTVLHQDWLNGKEYKCKVSNKALPAPIEKTISKAKGQPREPQVCTLPPSRDELTKNQVSLWCLVKGFYPSDIAVEWESNGQPENNYKTTPPVLDSDGSFFLYSKLTVDKSRWQQGNVFSCSVMHEALHNRYTQKSLSLSP
light: DIVMTQSPLSLPVTPGEPASISCRSSQSLVHSNRNTYLHWYQQKPGQAPRLLIYKVSNRFSGVPDRFSGSGSGTDFTLKISRVEAEDVGVYYCGQGTQVPYTFGQGTKLEIKRTVAAPSVFIFPPSDEQLKSGTASVVCLLNNFYPREAKVQWKVDNALQSGNSQESVTEQDSKDSTYSLSSTLTLSKADYEKHKVYACEVTHQGLSSPVTKSFNRGEC
B4: CE115HA000 Y100V one-arm antibody (antibody, human IgG1, kappa, L234A L235A, N297A, name in Kabat numbering)
heavy: QVQLVESGGGVVQPGRSLRLSCAASGFTFSNAWMHWVRQAPGKGLEWVAQIKAKSNNYATYYAESVKGRFTISRDDSKNSLYLQMNSLKTEDTAVYYCRYVHYGAVYGVDAWGQGTTVTVSSASTKGPSVFPLAPSSKSTSGGTAALGCLVKDYFPEPVTVSWNSGALTSGVHTFPAVLQSSGLYSLSSVVTVPSSSLGTQTYICNVNHKPSNTKVDKKVEPKSCDKTHTCPPCPAPEAAGGPSVFLFPPKPKDTLMISRTPEVTCVVVDVSHEDPEVKFNWYVDGVEVHNAKTKPREEQYASTYRVVSVLTVLHQDWLNGKEYKCKVSNKALPAPIEKTISKAKGQPREPQVYTLPPSRCELTKNQVSLSCAVKGFYPSDIAVEWESNGQPENNYKTTPPVLDSDGSFFLVSKLTVDKSRWQQGNVFSCSVMHEALHNHYTQKSLSLSPDYKDDDDK
chain: EPKSSDKTHTCPPCPAPELLGGPSVFLFPPKPKDTLMISRTPEVTCVVVDVSHEDPEVKFNWYVDGVEVHNAKTKPREEQYNSTYRVVSVLTVLHQDWLNGKEYKCKVSNKALPAPIEKTISKAKGQPREPQVCTLPPSRDELTKNQVSLWCLVKGFYPSDIAVEWESNGQPENNYKTTPPVLDSDGSFFLYSKLTVDKSRWQQGNVFSCSVMHEALHNRYTQKSLSLSP
light: DIVMTQSPLSLPVTPGEPASISCRSSQSLVHSNRNTYLHWYQQKPGQAPRLLIYKVSNRFSGVPDRFSGSGSGTDFTLKISRVEAEDVGVYYCGQGTQVPYTFGQGTKLEIKRTVAAPSVFIFPPSDEQLKSGTASVVCLLNNFYPREAKVQWKVDNALQSGNSQESVTEQDSKDSTYSLSSTLTLSKADYEKHKVYACEVTHQGLSSPVTKSFNRGEC
B5: CE115HA000 Y100aD one-arm antibody (antibody, human IgG1, kappa, L234A L235A, N297A, name in Kabat numbering)
heavy: QVQLVESGGGVVQPGRSLRLSCAASGFTFSNAWMHWVRQAPGKGLEWVAQIKAKSNNYATYYAESVKGRFTISRDDSKNSLYLQMNSLKTEDTAVYYCRYVHYGAYDGVDAWGQGTTVTVSSASTKGPSVFPLAPSSKSTSGGTAALGCLVKDYFPEPVTVSWNSGALTSGVHTFPAVLQSSGLYSLSSVVTVPSSSLGTQTYICNVNHKPSNTKVDKKVEPKSCDKTHTCPPCPAPEAAGGPSVFLFPPKPKDTLMISRTPEVTCVVVDVSHEDPEVKFNWYVDGVEVHNAKTKPREEQYASTYRVVSVLTVLHQDWLNGKEYKCKVSNKALPAPIEKTISKAKGQPREPQVYTLPPSRCELTKNQVSLSCAVKGFYPSDIAVEWESNGQPENNYKTTPPVLDSDGSFFLVSKLTVDKSRWQQGNVFSCSVMHEALHNHYTQKSLSLSPDYKDDDDK
chain: EPKSSDKTHTCPPCPAPELLGGPSVFLFPPKPKDTLMISRTPEVTCVVVDVSHEDPEVKFNWYVDGVEVHNAKTKPREEQYNSTYRVVSVLTVLHQDWLNGKEYKCKVSNKALPAPIEKTISKAKGQPREPQVCTLPPSRDELTKNQVSLWCLVKGFYPSDIAVEWESNGQPENNYKTTPPVLDSDGSFFLYSKLTVDKSRWQQGNVFSCSVMHEALHNRYTQKSLSLSP
light: DIVMTQSPLSLPVTPGEPASISCRSSQSLVHSNRNTYLHWYQQKPGQAPRLLIYKVSNRFSGVPDRFSGSGSGTDFTLKISRVEAEDVGVYYCGQGTQVPYTFGQGTKLEIKRTVAAPSVFIFPPSDEQLKSGTASVVCLLNNFYPREAKVQWKVDNALQSGNSQESVTEQDSKDSTYSLSSTLTLSKADYEKHKVYACEVTHQGLSSPVTKSFNRGEC
B6: CE115HA000 Y100S one-arm antibody (antibody, human IgG1, kappa, L234A L235A, N297A, name in Kabat numbering)
heavy: QVQLVESGGGVVQPGRSLRLSCAASGFTFSNAWMHWVRQAPGKGLEWVAQIKAKSNNYATYYAESVKGRFTISRDDSKNSLYLQMNSLKTEDTAVYYCRYVHYGASYGVDAWGQGTTVTVSSASTKGPSVFPLAPSSKSTSGGTAALGCLVKDYFPEPVTVSWNSGALTSGVHTFPAVLQSSGLYSLSSVVTVPSSSLGTQTYICNVNHKPSNTKVDKKVEPKSCDKTHTCPPCPAPEAAGGPSVFLFPPKPKDTLMISRTPEVTCVVVDVSHEDPEVKFNWYVDGVEVHNAKTKPREEQYASTYRVVSVLTVLHQDWLNGKEYKCKVSNKALPAPIEKTISKAKGQPREPQVYTLPPSRCELTKNQVSLSCAVKGFYPSDIAVEWESNGQPENNYKTTPPVLDSDGSFFLVSKLTVDKSRWQQGNVFSCSVMHEALHNHYTQKSLSLSPDYKDDDDK
chain: EPKSSDKTHTCPPCPAPELLGGPSVFLFPPKPKDTLMISRTPEVTCVVVDVSHEDPEVKFNWYVDGVEVHNAKTKPREEQYNSTYRVVSVLTVLHQDWLNGKEYKCKVSNKALPAPIEKTISKAKGQPREPQVCTLPPSRDELTKNQVSLWCLVKGFYPSDIAVEWESNGQPENNYKTTPPVLDSDGSFFLYSKLTVDKSRWQQGNVFSCSVMHEALHNRYTQKSLSLSP
light: DIVMTQSPLSLPVTPGEPASISCRSSQSLVHSNRNTYLHWYQQKPGQAPRLLIYKVSNRFSGVPDRFSGSGSGTDFTLKISRVEAEDVGVYYCGQGTQVPYTFGQGTKLEIKRTVAAPSVFIFPPSDEQLKSGTASVVCLLNNFYPREAKVQWKVDNALQSGNSQESVTEQDSKDSTYSLSSTLTLSKADYEKHKVYACEVTHQGLSSPVTKSFNRGEC

Molecular target: T1, CD3ε homodimer protein (human, UniProt P07766 23-126, limits assumed, sulfo-tag or biotin label in the ECL assays; amine-coupled to the chip in SPR)
T1 construct: also called human CD3ε homodimer protein; CD3 (CD3ε)
T1 sequence (P07766 23-126 limits assumed): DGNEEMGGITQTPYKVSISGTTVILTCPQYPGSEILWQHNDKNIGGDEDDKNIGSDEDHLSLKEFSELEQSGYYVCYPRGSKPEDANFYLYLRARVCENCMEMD
Test: SPR Biacore T200; CD3ε homodimer on CM4 chip;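 further: Single-residue variant antibodies injected as analyte over CD3ε homodimer immobilized by amine coupling, run at 25 °C in HBS-EP+ buffer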

Binder	ratio of amounts bound Z=Y/X (altered form / CE115HA000)
B1	0.8
B2	1.03
B3	0.62
B4	0.6
B5	0.31
B6	0.81
